Measured values reported in publication PMC4756856 (Nucleic Acids Research, 2016).

Biological target: the molecule itself
Assay: SEC-MALS

B1: TyrRSΔE2–4′ (TyrRSΔE2–4 splice variant of human tyrosyl-tRNA synthetase without the flexible linker aa343–360) (natural protein, UniProt P54577 1-528, looked up)
chain: MGDAPSPEEKLHLITRNLQALDEEYLKVDAQFGGIDQRKIFTFAEKYLPALGYSKRVHLMNPMVPGLTGSKMSSSEEESKIDLLDRKEDVKKKLKKAFCEPGNVENNGVLSFIKHVLFPLKSEFVILRDEKWGGNKTYTAYVDLEKDFAAEVVHPGDLKNSVEVALNKLLDPIREKFNTPALKKLASAAYPEEVIPSRLDIRVGKIITVEKHPDADSLYVEKIDVGEAEPRTVVSGLVQFVPKEELQDRLVVVLCNLKPQKMRGVESQGMLLCASIEGINRQVEPLDPPAGSAPGEHVFVKGYEKGQPDEELKPKKKVFEKLQADFKISEECIAQWKQTNFMTKLGSISCKSLKGGNIS
In the case of B1, the “stoichiometry N” value is reported as 2.
